Test results taken from the supplement of paper PMC10567573.

B1: SMTNL2 (parent)
chain: AFTMAENLANCERLIEVEDMMVMG
B2: TBC1D10A (parent)
chain: WCLVQICEKYLPGYYSEKLEAIQL

Variants of: B1
Assay: protein stability index of a GFP-peptide fusion (GPS, HEK-293T) (PSI 1-6); higher = more stable
Settings: c terminus: a fixed tail appended
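Further: lentivirally expressed fusions sorted by FACS into six bins by GFP to DsRed ratio, PSI derived from sequencing read proportions per bin multiplied by bin number.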

Protein stability index: each site, then its substitutions
E6: K 1.77, T 1.74, H 2.09, G 2.15, A 1.83, Y 2.76, W 1.81, N 1.96, Q 1.3
E16: C 1.9, T 1.72, Y 1.94, M 2.92, N 2.17, H 1.97, A 1.99, G 2.62, R 1.83, P 2.79
I15: N 3.94, W 2.8, V 3.42, H 3.95, F 3.39, E 4.99
E12: C 1.55, G 2.06, I 2.73, N 2.93, W 2.71, L 1.7, A 1.75, M 2.54, D 3.1
F2: D 4.48, W 2.07, N 3.95, Y 2.22, P 4.28, C 3.14, Q 3.22
M21: G 2.12, N 3.13, W 1.9, I 1.98, L 2.39, E 4.11, A 2.37, R 2.23
R13: D 4.24, P 3.62, Y 2.17, L 3.24, E 3.96, N 3.75, M 2.56, S 3.15, H 3.03
V17: G 3.71, I 2.16, Q 2.43, M 2.04, K 2.38, S 3.25, N 2.07
C11: L 2.32, D 4.07, N 3.92, T 2.21, Q 4.09, V 2.75, E 3.9, W 2.21
T3: S 2.12, F 1.71, K 2.03, N 2.42, M 1.96, V 1.79, C 1.85, H 2.24, P 3.15
A1: S 2.46, N 2.44, H 2.62, W 1.86, I 1.76, P 3.16
V22: P 2.65, W 1.77, D 2.55, A 2.05, N 2.44, L 2.18, T 2.25, E 3.18, H 1.85, Y 2.07
A5: Y 2.71, I 3.19, G 3.11, E 4.16, T 2.83, H 2.01, W 1.81, K 2.51, R 1.93, F 2.07, S 2.55, C 2.27, Q 2.05
G24: R 2.47, V 1.03, S 2, T 1.68, E 2.93, N 2.45
A9: P 3.84, E 3.65, M 2.57, L 2.06, D 4.18, T 2.85, S 2.64, F 1.81
D19: W 4.57, A 2.36, K 3.26, Y 2.48
L14: F 2.62, E 3.64, N 4.2, R 3.4, S 3.08, W 1.59, V 2.47, H 3.86, P 3.69
N7: T 2.62, L 2.48, A 2.83, K 2.43, G 2.59, D 3.11, S 2.45, Q 2.38
M20: T 3.4, S 2.27, Q 2.72, R 2.16, G 2.47, H 2.98
E18: N 3.43, R 2.67, I 1.58, F 3.08, D 2.9
N10: R 2.24, P 3.37, D 2.01, M 2.1
L8: V 3.14, S 4.28, T 3.92, E 4.29, R 3.38, K 3.98, Q 4.06, H 3.85
M23: K 2.8, E 3.69, Y 1.88, A 2.61, I 1.47, F 1.54, S 2.69, G 1.7, C 2.09
M4: E 4.4, Y 3.13, V 3.18, P 3.74

Variants of: B2
Assay: as above
Settings: c terminus: a fixed tail appended

Protein stability index of substitutions, site by site:
K9: A 1.11, T 3.21, I 3.29, P 2.17, H 2.65
Q5: V 4.85, M 2.16, F 2.92, G 3.13, P 2.69, L 3.52
Y14: D 3.02, P 2.61, N 3.59, K 3.06
G13: Y 5.24, W 2.7, K 2.91, C 1.5, E 3.01, I 1.54, M 3.53, S 2.02
Q23: H 2.13, W 2.58, K 2.75, S 3.29, N 3.14, M 2.93, P 1.64, R 2.52, F 3.75, A 4.11, V 2.11, E 2.44
I6: G 1.73, C 3.08, K 2.41
L11: D 2.91, P 3.62, C 2.72, I 3.03
E8: C 2.85, A 2.95, T 2.34, Q 4.87, K 4.48
Y15: W 2.85, F 1.24, C 2.35
K18: R 2.22, Q 1.91, H 3.99, D 1.92, W 3.09, I 2.1
V4: H 1.59, T 2.83, Q 1.48, L 2.19, G 2.45, M 3.23, I 2.23, P 1.73
E20: K 3.35, S 2.64, W 1.74, D 1.79, Q 2.79, T 1.47, A 2.21
L24: V 2.38, D 2.69, T 2.55, F 3.24, W 2.98, H 1.14, A 3, K 3.14
A21: Q 2.37, P 3.77, R 2.99, T 2.15, C 4.65, G 2.02, M 3.73, L 4.51
L19: C 4.85, Q 3.88, V 2.92, N 3.63, E 4.16, P 1.99
I22: L 4.01, M 2.21, T 2.67, D 3.23, N 1.3, S 1.72, Q 2.4, K 2.86
S16: P 2.1, H 1.6, D 2.24, E 4.03
L3: D 1.29, S 1.88, P 1.5, G 3.3, C 3.05, W 1.02, T 4.55, N 1.88
Y10: W 4.21, Q 2.39, G 4.89, I 1.18, M 3.09, V 1.61, P 2.35
C7: D 2.31, L 3.68, K 2.9, Y 3.39, R 3.73, M 2.57, T 3.5
W1: R 2.22, H 2.83, A 3.88, P 1.93, F 2.61, T 3.45, V 2.6
P12: S 3.84, T 1.62, M 1.77, Y 2.66, W 2.32, I 2.32
E17: L 3.48, V 3.99, Q 1.94, C 2.56, P 2.03, M 3.65, H 1.77
C2: N 3.07, S 1.67, G 2.79, E 1.01, F 1.81
